B1: TrwB/VirD4 coupling protein of plasmid R388, N-terminally His-tagged (natural protein, conjugative plasmid R388, UniProt Q04230 1-507, looked up)
chain: MHPDDQRKVSAGIVIVLPLIFWITAVQKTEVLGSPKLLALWELMKLTPQKPILLLSALGGLAVGVLFVWLLNSVGQGEFGGAPFKRFLRGTRIVSGGKLKRMTREKAKQVTVAGVPMPRDAEPRHLLVNGATGTGKSVLLRELAYTGLLRGDRMVIVDPNGDMLSKFGRDKDIILNPYDQRTKGWSFFNEIRNDYDWQRYALSVVPRGKTDEAEEWASYGRLLLRETAKKLALIGTPSMRELFHWTTIATFDDLRGFLEGTLAESLFAGSNEASKALTSARFVLSDKLPEHVTMPDGDFSIRSWLEDPNGGNLFITWREDMGPALRPLISAWVDVVCTSILSLPEEPKRRLWLFIDELASLEKLASLADALTKGRKAGLRVVAGLQSTSQLDDVYGVKEAQTLRASFRSLVVLGGSRTDPKTNEDMSLSLGEHEVERDRYSKNTGKHHSTGRALERVRERVVMPAEIANLPDLTAYVGFAGNRPIAKVPLEIKQFANRQPAFVEGTI
notes: TrwB (VirD4 homologue), coupling protein encoded by the conjugative plasmid R388; whole gene cloned after trwD/virB11; theoretical molecular weight with 10 additional histidines 57 kDa; Inner membrane protein; also called His trwB_(/virD4); source: detergent-solubilised membranes; co-purified (Strep column, HisTrap); not shown: His10, N-terminal, kept

Assays:
[1] = biological target: T4SS_(3-10) complex of plasmid R388 (TrwM/VirB3 to TrwE/VirB10) (conjugative plasmid R388); experiment: cysteine labelling with Alexa Fluor 633 C5 maleimide and fluorescence of SDS-PAGE bands; co-purified T4SS3-10+D4 complex denatured in 1% SDS, reduced with TCEP, labelled; band of TrwE (14 copies) as reference; three independent preparations
[2] = biological target: the molecule itself; experiment: negative stain electron microscopy structure; co-purified T4SS3-10+D4 complex from the ΔtrwD/virB11 construct, cross-linked with 0.1% glutaraldehyde on a 10-30% sucrose gradient (GraFix); 2% uranyl acetate; reconstruction of the inner membrane complex, C2 symmetry, 28 Å

Row | Molecule | stoichiometry N (TrwB subunits per complex) [1] | stoichiometry N [2]
1 | TrwB/VirD4 coupling protein of plasmid R388, N-terminally His-tagged (from UniProt Q04230 1-507) (natural protein) | 4.5 | 
2 | B1 |  | 2 TrwB molecules in each region of density
